Literature values, collected in patent US20250388691A1, “METHODS FOR TREATING LYMPHOMA” (Xencor, Inc., priority 2022, published 2025).

Columns and labels:
[1] = system: R/R DLBCL; settings: ongoing Phase 1 study XmAb13676-01, NCT02924402
[2] = plamotamab, Investigator's Brochure, 2021

In the case of “plamotamab: humanized bsAb that binds both CD3 and the tumor antigen CD20; Fab-scFv-Fc format”, the “responses in subjects with R/R DLBCL” value [1] is given as “durable responses”, the “TLS, R/R NHL subjects” value (Phase 1 monotherapy, 2 of the 80 R/R NHL subjects) is given as 2.5% and the “any-grade TLS, subjects” value (Phase 1 monotherapy, CD20-expressing hematologic malignancies, 4 of 96 subjects) is given as 4.2%. For the same substance, the CRS (XmAb13676-01 study, especially with the Cycle 1 Day 1 dose) was “frequently observed”, the “serious or fatal events of TLS” value (plamotamab monotherapy in R/R DLBCL) was “no serious or fatal events of TLS” and the “Adverse events of neutropenia (all grades)” value [2] was 20.8%. The “Adverse events of thrombocytopenia (all grades)” value [2] was 24.0%.
